# Source: patent publication US20040019188A1, “Targeting through integrins” (priority 2000, published 2004)
# Biological target: β1 integrins on HEp-2 cells
substance,measurement,value
RGDS peptide (Gibco),ID30,170 µmol/L
